Paper PMC7282976

Tests used:
[1] = conditioned-media western and immunocytochemistry; conditions: glycan lost; control: same mutant without Tun
[2] = anti-Hag western densitometry of cell lysates; conditions: glycan lost; control: native V3, Dox, no Tun
[3] = anti-Hag immunocytochemistry, extracellular V3 staining; conditions: glycan lost; control: native V3, Dox, no Tun

| Substance | expression_or_secretion [1] | expression_or_secretion, fold_change [2] | localisation_or_trafficking [3] |
| --- | --- | --- | --- |
| versican isoform V3 (rat V3): N330Q + tunicamycin | abolishes | – | – |
| versican isoform V3 (rat V3): N57Q + tunicamycin | abolishes | – | – |
| versican isoform V3 (rat V3): tunicamycin | – | decreases | no change |
